Measurements published in US20120321636A1 (UCB, published 2012).
One block for each molecule: values may come before it.

B2: BMP-6 (ligand, UniProt P22004 382-513, looked up)
chain: QQSRNRSTQSQDVARVSSASDYNSSELKTACRKHELYVSFQDLGWQDWIIAPKGYAANYCDGECSFPLNAHMNATNHAIVQTLVHLMNPEYVPKPCCAPTKLNAISVLYFDDNSNVILKKYRNMVVRACGCH
notes: also called bone morphogenic protein 6

Experiments:
BMP-6 [1] = target: B2; test: ELISA-based competition: 10-fold molar excess of receptor-Fc against coated sclerostin for BMP-6
BMP-6 [2] = target: B2; test: ELISA-based competition: receptor-Fc against coated sclerostin for BMP-6 (11 nM)
BMP-6 [3] = target: B2; test: ELISA-based competition: DAN against coated sclerostin for BMP-6
sclerostin = target: T1, sclerostin (Homo sapiens (Human), UniProt Q9BQB4 24-213); test: ELISA, BMP-6 on a sclerostin-coated surface (300 ng/well)
T1 construct: also called SOST; Beer
T1 sequence: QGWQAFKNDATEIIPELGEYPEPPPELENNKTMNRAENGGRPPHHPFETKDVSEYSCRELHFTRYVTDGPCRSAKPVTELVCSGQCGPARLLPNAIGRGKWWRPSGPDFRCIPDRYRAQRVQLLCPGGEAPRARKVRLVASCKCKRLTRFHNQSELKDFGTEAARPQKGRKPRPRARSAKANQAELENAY
Protocol: (§1) A 10-fold molar excess of the BMP receptor was sufficient to reduce binding of sclerostin to BMP-6 by approximately 50%. This competition was also observed with a BMP receptor II-FC fusion protein (IC₅₀=36 nM) and DAN (IC₅₀=43 nM).

BMP-6 [4] = target: B2; test: ELISA-based competition: receptor-Fc against coated sclerostin for BMP-6
Protocol: as §1

percent reduction of sclerostin binding to BMP-6 at 10-fold molar excess (BMP-6 [1]): 50%
IC50 (BMP-6 [2]): 114 nM
Molecule: BMP receptor IA (FC fusion construct)

IC50 (BMP-6 [3]): 43 nM
B1: DAN (ligand)
chain: AAPPPINKLALFPDKSAWCEAKNITQIVGHSGCEAKSIQNRACLGQCFSYSVPNTFPQSTESLVHCDSCMPAQSMWEIVTLECPGHEEVPRVDKLVEKILHCSCQACGKEPSHEGLSVYVQGEDGPGSQPGTHPHPHPHPHPGGQTPEPEDPPGAPHTEEEGAED

Molecule: B2
Kd (sclerostin): 3.4 nM

IC50 (BMP-6 [4]): 36 nM
B3: BMP receptor II-FC fusion protein (Fc fusion, not shown: a dimerising Fc or GST; small tags and cut ends)
chain: SQNQERLCAFKDPYQQDLGIGESRISHENGTILCSKGSTCYGLWEKSKGDINLVKQGCWSHIGDPQECHYEECVVTTTPPSIQNGTYRFCCCSTDLCNVNFTENFPPPDTTPLSPPHSFNRDET
notes: also called BMPR-II
